# Experimental data as given in article PMC2843815 (Protein expression and purification, 2010).
# B1: Bor1p (natural protein, S. cerevisiae)
# chain: MSNESTRVTVSRGCTASDECAQALERTNDELDRESSVSESRSDEESHEKLSRRRFPTLGIGIWLDLKDRIPYYKSDWVDAFNYRVIPSIVDTYFNNLLPAIAFAQDMFDRTDNSYGVNEVLLSSAMAGIVFGVLGGQPLCIVGVTGPISIFNYTVYEIIKPLNTSYFGFMFWICMWSMIFHLVLAFTNAVCLLQYVTTFPCDIFGLFINVVYIQKGIQILTRQFSAKSGEKSVQDGFASVVVALVMTAFGLFFKLFHYYPLFSHRIRTFISDYSTALSVLFWSSFTHFGGYLHDVKFKKLPITKAFFPTSKVNRPQNTWLAYEPIPVKDVFIALPFGIFLTILFYFDHNVSSLMAQRHQYKLKKPSSFHYDFALLGLTTCISGVLGIPAPNGLIPQAPLHTETLLVRDSNQKVISCVEQRFTNTFQGLMILGTMTRPLLVCLGEIPQAVLSGLFFIMGINGLMTNSIIQRLVFLFSDPNRRDNTSPLMKVSKKSMLIFLSFSLTGFAGEFAITNTIAAIGFPLVLLLSVLVSFSFAYIFPTEELKILDTNVAQKFTIKNLLLENIRDAKFCDKHEDSGLEVLFQ
# Biological target: the molecule itself
# Assay: SEC-MALS
protein,measurement,value
B1,stoichiometry N,2
